Measurements reported in IntAct's records for PubMed 20953186.

B1: E3 ubiquitin ligase TRAF3IP2 (Homo sapiens), O43734-2 (parent)
chain: MNRSIPVEVDESEPYPSQLLKPIPEYSPEEESEPPAPNIRNMAPNSLSAPTMLHNSSGDFSQAHSTLKLANHQRPVSRQVTCLRTQVLEDSEDSFCRRHPGLGKAFPSGCSAVSEPASESVVGALPAEHQFSFMEKRNQWLVSQLSAASPDTGHDSDKSDQSLPNASADSLGGSQEMVQRPQPHRNRAGLDLPTIDTGYDSQPQDVLGIRQLERPLPLTSVCYPQDLPRPLRSREFPQFEPQRYPACAQMLPPNLSPHAPWNYHYHCPGSPDHQVPYGHDYPRAAYQQVIQPALPGQPLPGASVRGLHPVQKVILNYPSPWDHEERPAQRDCSFPGLPRHQDQPHHQPPNRAGAPGESLECPAELRPQVPQPPSPAAVPRPPSNPPARGTLKTSNLPEELRKVFITYSMDTAMEVVKFVNFLLVNGFQTAIDIFEDRIRGIDIIKWMERYLRDKTVMIIVAISPKYKQDVEGAESQLDEDEHGLHTKYIHRMMQIEFIKQGSMNFRFIPVLFPNAKKEHVPTWLQNTHVYSWPKNKKNILLRLLREEEYVAPPRGPLPTLQVVPL
partner: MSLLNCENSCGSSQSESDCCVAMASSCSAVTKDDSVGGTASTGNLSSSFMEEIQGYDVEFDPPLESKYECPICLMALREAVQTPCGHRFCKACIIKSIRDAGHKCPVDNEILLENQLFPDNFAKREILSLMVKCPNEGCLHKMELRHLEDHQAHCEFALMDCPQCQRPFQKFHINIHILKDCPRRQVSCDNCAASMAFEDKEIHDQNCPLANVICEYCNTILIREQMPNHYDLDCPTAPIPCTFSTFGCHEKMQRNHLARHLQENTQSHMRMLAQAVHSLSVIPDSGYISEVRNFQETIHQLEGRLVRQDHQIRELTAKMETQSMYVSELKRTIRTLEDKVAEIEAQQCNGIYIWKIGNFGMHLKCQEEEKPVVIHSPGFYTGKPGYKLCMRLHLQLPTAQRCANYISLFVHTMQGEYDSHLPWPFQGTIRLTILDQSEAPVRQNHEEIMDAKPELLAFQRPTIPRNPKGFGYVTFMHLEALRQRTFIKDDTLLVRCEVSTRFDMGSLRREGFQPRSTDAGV

Variants of: B1
Conditions: with traf6_human TRAF6, Q9Y4K3

Variant | effect of a mutation on the interaction
D10N | disrupting interaction
